Test results published in patent US20210101970A1 (Pfizer, published 2021).

T1: human CXCR5 (human, UniProt P32302 1-372)
T1 sequence: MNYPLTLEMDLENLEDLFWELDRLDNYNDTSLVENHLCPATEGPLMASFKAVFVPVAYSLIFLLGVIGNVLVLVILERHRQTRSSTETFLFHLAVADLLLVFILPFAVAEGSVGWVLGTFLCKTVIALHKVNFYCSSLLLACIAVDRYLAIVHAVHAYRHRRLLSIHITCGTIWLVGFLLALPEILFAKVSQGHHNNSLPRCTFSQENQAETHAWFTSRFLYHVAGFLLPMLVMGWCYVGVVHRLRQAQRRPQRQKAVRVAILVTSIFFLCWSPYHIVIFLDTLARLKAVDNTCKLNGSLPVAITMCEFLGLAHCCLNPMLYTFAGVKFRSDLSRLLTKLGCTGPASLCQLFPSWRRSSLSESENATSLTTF

T2: cynomolgus monkey CXCR5 (cynomolgus monkey, UniProt P32302 1-372 (human entry))
T2 construct: also called cynoCXCR5; NHP CXCR5
T2 chain: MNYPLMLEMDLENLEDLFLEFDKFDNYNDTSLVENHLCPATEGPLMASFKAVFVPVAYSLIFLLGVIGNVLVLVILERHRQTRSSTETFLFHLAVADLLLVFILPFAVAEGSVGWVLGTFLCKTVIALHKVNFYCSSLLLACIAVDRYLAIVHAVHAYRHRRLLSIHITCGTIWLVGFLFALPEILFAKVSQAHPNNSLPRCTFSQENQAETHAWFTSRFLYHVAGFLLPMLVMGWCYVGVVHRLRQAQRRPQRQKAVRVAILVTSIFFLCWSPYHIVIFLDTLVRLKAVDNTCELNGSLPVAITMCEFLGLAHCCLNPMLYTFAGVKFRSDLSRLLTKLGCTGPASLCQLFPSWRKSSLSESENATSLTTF


Experiments:
[1] = biological target: T1, human CXCR5; test: cell-based or functional assay
[2] = biological target: T1, human CXCR5; test: flow cytometry on Raji cells, gMFI titration
Method: The apparent affinity of antibody binding to Raji cells was calculated as the EC₅₀ of equilibrium binding titration curves in which the geometric mean fluorescence intensity (gMFI) of the antigen binding population was quantified by flow cytometry and the results are shown in Table 2.

[3] = biological target: T1, human CXCR5; test: cell-based or functional assay; remark: listed apart in the source
[4] = biological target: T1, human CXCR5; test: flow cytometry, human PBMC B cells
Method: (§1) The apparent affinity for cell surface CXCR5 of chimeric and humanized CXCR5 fucosylated and afucosylated antibodies was assessed. More specifically, to determine the apparent affinity of chimeric and humanized CXCR5 antibodies to CXCR5-expressing cells, cell binding experiments were performed on human and cynomolgus monkey peripheral blood mononuclear cells (PBMCs) and human tonsillar mononuclear cells (TMCs). The apparent affinity of CXCR5 mab binding to CXCR5+ cells (B cells, bona fide Tfh cells, and circulating Tfh-like cells) was calculated as the EC50 of equilibrium binding titration curves in which the geometric mean fluorescence intensity (gMFI) of the antigen binding population was quantified by flow cytometry.
(§2) Following isolation, PBMCs were plated at a density of 1.0×10⁵ cells per well and CD4+ TMCs were plated at a density of 2.0×10⁵ cells per well in isolation buffer (PBS containing 1% FBS and 1 mM EDTA) in 96 well U-bottom plates. The plates were then centrifuged at 1500 rpm for 5 minutes at room temperature. PBMCs and CD4+ TMCs were resuspended in Fluorescence-activated cell sorting (FACS) buffer (PBS containing 1% FBS) containing human crystallized fragment Fc block (2 μL per well; Biolegend) and 4-fold serial dilutions of the antibodies (11-point dilution series, beginning at 5000 ng/mL for PBMCs and 312.5 ng/mL for CD4+ TMCs) and incubated on ice for 2 hours. PBMCs and CD4+ TMCs were then washed with FACS buffer 3 times and resuspended in 50-100 μL of FACs buffer containing fluorescent-conjugated antibodies for staining lymphocyte subsets and a fluorescent-conjugated secondary antibody against human Ig to detect CXCR5 monoclonal antibodies (mAbs). After incubation for 30 minutes at 4° C., PBMCs and CD4+ TMCs were washed with FACS buffer 2 times and resuspended in 125 μL of 0.5% paraformaldehyde (PFA) in PBS. Plates were stored at 4° C. until analysis by flow cytometry (BD LSRFortessa™ Cell Analyzer, BD Biosciences, Franklin Lakes, N.J.).
(§3) The cell binding titration curves were generated by plotting the gMFI of the antigen binding population against the log of CXCR5 antibody concentration. EC₅₀ values were determined using GraphPad Prism® (version 6.0, GraphPad Software, Inc, San Diego, Calif.) nonlinear-regression curve fits and a sigmoidal log of agonist dose-response model, according to the following equation

[5] = biological target: T1, human CXCR5; test: flow cytometry, human tonsil Tfh cells
Method: Following centrifugation, red blood cell lysis was performed on the pellet using an ammonium chloride lysis buffer. Platelets were removed using a low speed centrifugation (200×g) for 10 minutes in Phosphate-Buffered Saline (PBS)/2% FBS/2 mM Ethylenediaminetetraacetic acid (EDTA). CD4+ T cells were purified out of the TMC mixture using an EasySep™ Human CD4+ T Cell Enrichment Kit, according to the manufacturer's instructions ([…] Technologies, Vancouver, BC, Canada).
as §2, §3

[6] = biological target: T2, cynomolgus monkey CXCR5; test: flow cytometry, cynomolgus PBMC B cells
Method: as §1, §2, §3

[7] = biological target: T2, cynomolgus monkey CXCR5; test: cell-based or functional assay

Row | Ca2+ flux IC50 [1] [pM] | EC50 [2] [pM] | ADCC Activity Average EC50, Human B Cells [3] [pM] | ADCC Activity Average EC50, Human Tfh Cells [3] [pM] | EC50 [4] [pM] | EC50 [5] [pM] | EC50 [6] [pM] | ADCC Activity Average EC50, NHP B Cells [7] [pM] | Binder
1 | 5930 | 968 | – | – | – | – | – | – | mouse 11G2 (antibody, V domains shown, mouse hybridoma mAb; also called 11G2 (hybridoma)) VH: EVKLVESGGGLVQPGGSLRLSCATSGFTFTDFYMSWVRQPPGRALEWLGFIRNKANGYTTEYSASVKGRFTISRDNSQSILYLQMNTLRAGDSATYYCVRVYGSTLHYWGQGTILTVSS VL: DVVVTQSPDSLAVSLGQRATISCRASESVEYHGTSLMHWYQQKPGQPPKLLIYAASNVESGVPARFSGSGSGTDFSLNIHPVEEGDIAMYFCQQSRKVPWTFGGGTKLEIK
2 | – | – | 4.39 | 0.07 | 8.09 | 45.6 | – | – | Afucosyl Chimeric 11G2 (antibody, human IgG1, kappa, V domains shown, afucosylated Fc glycan (Asn297), made in Potelligent CHOK1SV cells) VH: EVKLVESGGGLVQPGGSLRLSCATSGFTFTDFYMSWVRQPPGRALEWLGFIRNKANGYTTEYSASVKGRFTISRDNSQSILYLQMNTLRAGDSATYYCVRVYGSTLHYWGQGTILTVSS VL: DVVVTQSPDSLAVSLGQRATISCRASESVEYHGTSLMHWYQQKPGQPPKLLIYAASNVESGVPARFSGSGSGTDFSLNIHPVEEGDIAMYFCQQSRKVPWTFGGGTKLEIKR
3 | 5560 | 1010 | – | – | – | – | – | – | mouse 5H7 (antibody, V domains shown, mouse hybridoma mAb; also called 5H7 (hybridoma)) VH: EVKLVESGGGLVQPGDSLRLSCATSGFTFTDFYMSWVRQPPGRALEWLGFIRNKANGYTTEYSASVKGRFTISRDNSQSILYLQMNTLRAGDSATYYCVRVYGSTLHYWGQGTILTVSS VL: DVVVTQSPDSLAVSLGQRATISCRASESVEYHGTSLMHWYQQKPGQPPKLLIYAASNVESGVPARFSGSGSGTDFSLNIHPVEEGDVSMFFCQQSRKVPWTFGGGTKLEIK
4 | 14700 | 805 | – | – | – | – | – | – | mouse 41A10 (antibody, V domains shown, mouse hybridoma mAb; also called 41A10 (hybridoma)) VH: EVQLVESGGDLVKPGGSLKLSCAASGFTFRSYGMSWVRQTPDKRLEWVATISSGGTYTFYPDILKGRITISRDNAKNTLYLQMSNLKSEDTAMYYCARRGEDYRGALEHWGQGTSVTVSS VL: QIVLTQSPAVMSASPGEKVTMTCSASSSVNYIHWYQQKSGTSPKRWIYETSRLASGVPVRFSGSGSGTSYSLTISTMEAEDAATYYCQQWSSNPLTFGAGTKLELK
5 | – | – | 54.5 | – | – | – | – | – | Afucosyl Chimeric 41A10 (antibody, human IgG1, kappa, V domains shown, afucosylated Fc glycan (Asn297)) VH: EVQLVESGGDLVKPGGSLKLSCAASGFTFRSYGMSWVRQTPDKRLEWVATISSGGTYTFYPDILKGRITISRDNAKNTLYLQMSNLKSEDTAMYYCARRGEDYRGALEHWGQGTSVTVSS VL: QIVLTQSPAVMSASPGEKVTMTCSASSSVNYIHWYQQKSGTSPKRWIYETSRLASGVPVRFSGSGSGTSYSLTISTMEAEDAATYYCQQWSSNPLTFGAGTKLELKR
6 | – | – | 1240 | – | 153 | – | 2050 | – | Humanized 41A10 142/147 (antibody, human IgG1, V domains shown, also called h41A10 VH (XC147)/VL (XC142)) VH: EVQLVESGGGLVQPGGSLRLSCAASGFTFRSYGMSWVRQAPGKGLEWVATISSGGTYTFYPDILKGRITISRDNAKNSLYLQMNSLRAEDTAVYYCARRGEDYRGALEHWGQGTLVTVSS VL: DIQMTQSPSSLSASVGDRVTITCSASSSVNYIHWYQQKPGKAPKRLIYETSRLASGVPSRFSGSGSGTDYTLTISSLQPEDFATYYCQQWSSNPLTFGQGTKVEIK
7 | – | – | 1110 | – | 152 | – | 1960 | – | Humanized 41A10 142/148 (antibody, human IgG1, V domains shown, also called h41A10 VH (XC148)/VL (XC142)) VH: EVQLVESGGGLVQPGGSLRLSCAASGFTFRSYGMSWVRQAPGKGLEWVATISSGGTYTFYPDILKGRFTISRDNAKNSLYLQMNSLRAEDTAVYYCARRGEDYRGALEHWGQGTLVTVSS VL: DIQMTQSPSSLSASVGDRVTITCSASSSVNYIHWYQQKPGKAPKRLIYETSRLASGVPSRFSGSGSGTDYTLTISSLQPEDFATYYCQQWSSNPLTFGQGTKVEIK
8 | – | – | 377 | – | 13.1 | 3.33 | 10.1 | 43.6 | Humanized 11G2 151/152 (antibody, human IgG1, V domains shown, also called h11G2 VH (XC152)/VL (XC151)) VH: EVQLVESGGGLVKPGGSLRLSCAASGFTFTDFYMSWVRQAPGKGLEWLGFIRNKANGYTTEYSAPVKGRFTISRDDSKNTLYLQMNSLKTEDTAVYYCVRVYGSTLHYWGQGTLVTVSS VL: DIQMTQSPSSLSASVGDRVTITCRASESVEYHGTSLMHWYQQKPGKAPKLLIYAASNVESGVPSRFSGSGSGTDFTLTISSLQPEDFATYYCQQSRKVPWTFGQGTKVEIK
9 | – | – | 568 | – | 8.88 | 3.23 | 7.06 | 28.1 | Humanized 11G2 153/156 (antibody, human IgG1, V domains shown, also called h11G2 VH (XC156)/VL (XC153)) VH: EVQLVESGGGLVQPGGSLRLSCATSGFTFTDFYMSWVRQAPGKGLEWVGFIRNKANGYTTEYSASVKGRFTISRDNAKNSLYLQMNSLRAEDTAVYYCVRVYGSTLHYWGQGTLVTVSS VL: DIQMTQSPSSLSASVGDRVTITCRASESVEYHGTSLMHWYQQKPGKAPKLLIYAASNVESGVPSRFSGSGSGTDFTLTISSLQPEDFATYFCQQSRKVPWTFGQGTKVEIK
10 | – | – | 463 | – | 7.79 | 4.82 | 7.03 | 20.7 | Humanized 11G2 153/155 (antibody, human IgG1, V domains shown, also called h11G2 VH (XC155)/VL (XC153)) VH: EVQLVESGGGLVQPGGSLRLSCAASGFTFTDFYMSWVRQAPGKGLEWVGFIRNKANGYTTEYSASVKGRFTISRDNAKNSLYLQMNSLRAEDTAVYYCARVYGSTLHYWGQGTLVTVSS VL: DIQMTQSPSSLSASVGDRVTITCRASESVEYHGTSLMHWYQQKPGKAPKLLIYAASNVESGVPSRFSGSGSGTDFTLTISSLQPEDFATYFCQQSRKVPWTFGQGTKVEIK
11 | – | – | 517 | – | 19.1 | 7.24 | 8.65 | 54 | Humanized 11G2 154/157 (antibody, human IgG1, V domains shown, also called h11G2 VH (XC157)/VL (XC154)) VH: EVQLVESGGGLVQPGGSLRLSCATSGFTFTDFYMSWVRQAPGKGLEWVGFIRNKANGYTTEYSASVKGRFTISRDNAKSSLYLQMNSLRAEDTAVYYCVRVYGSTLHYWGQGTLVTVSS VL: DIQMTQSPSSLSASVGDRVTITCRASESVEYHGTSLMHWYQQKPGKAPKLLIYAASNVESGVPSRFSGSGSGTDFTLTISSLQPEDFATYYCQQSRKVPWTFGQGTKVEIK
